Assay results taken from paper PMC5511134, “Intrinsic dynamics study identifies two amino acids of TIMP-1 critical for its LRP-1-mediated endocytosis in neurons” (Scientific Reports, 2017).
Values belong to the binder of their own block, whether it stands above or below them.

What was measured:
[1] = target: T1, low-density lipoprotein receptor-related protein-1 (LRP-1) on mouse cortical neurons (mouse (endogenous in cortical neurons), UniProt Q91ZX7 20-4545); assay: fluorescence of ligand bound to the cell surface (released by pronase, spectrofluorimetry); mouse cortical neurons incubated at 4 °C with 5 nM eFluor-conjugated TIMP-1 or mutants, with or without 500 nM RAP or 30 µg/mL LRP-1 blocking antibodies R2629; washed, surface-digested with 0.1% pronase, fluorescence of the supernatant; details: one partner purified
T1 construct: LRP-1 at the surface of primary cortical neurons; extracellular alpha-chain non-covalently associated with the transmembrane beta-chain; source: endogenous, primary cortical neurons from CD1 mouse embryos

[2] = target: T2, Recombinant LRP-1 mini-domain DIV with an Fc-tag (UniProt Q07954 3332-3778); assay: SPR; Biacore T200; LRP-1 DII or DIV with Fc-tag immobilised on a CMD500m chip functionalised with anti-Fc antibody; TIMP-1 or mutants 5-160 nM injected, multi-cycle kinetics; HBS-N (50 mM Hepes, 150 mM NaCl, 0.005% Tween, pH 7.4); KD calculated from kon and koff; details: both partners purified
T2 construct: No catalogue number is printed; also called LRP-1 domain IV; source: bought: R&D
T2 sequence (Q07954 3332-3778): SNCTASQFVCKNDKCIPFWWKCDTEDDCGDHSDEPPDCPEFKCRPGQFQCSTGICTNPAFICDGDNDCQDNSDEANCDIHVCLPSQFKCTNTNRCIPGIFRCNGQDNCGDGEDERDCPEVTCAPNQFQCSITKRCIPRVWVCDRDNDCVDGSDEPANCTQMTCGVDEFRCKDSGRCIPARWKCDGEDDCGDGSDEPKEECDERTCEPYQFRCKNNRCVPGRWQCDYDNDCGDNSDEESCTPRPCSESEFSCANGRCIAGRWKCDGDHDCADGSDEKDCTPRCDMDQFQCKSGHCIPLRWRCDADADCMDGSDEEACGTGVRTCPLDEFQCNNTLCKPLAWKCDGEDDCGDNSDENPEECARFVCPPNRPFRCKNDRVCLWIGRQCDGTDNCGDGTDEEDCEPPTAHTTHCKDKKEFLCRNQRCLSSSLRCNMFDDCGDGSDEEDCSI

[3] = target: T3, Recombinant LRP-1 mini-domain DII with an Fc-tag (UniProt Q07954 852-1182); assay: as above; details: both partners purified
T3 construct: No catalogue number is printed; also called LRP-1 domain II; source: bought: R&D
T3 sequence (looked up): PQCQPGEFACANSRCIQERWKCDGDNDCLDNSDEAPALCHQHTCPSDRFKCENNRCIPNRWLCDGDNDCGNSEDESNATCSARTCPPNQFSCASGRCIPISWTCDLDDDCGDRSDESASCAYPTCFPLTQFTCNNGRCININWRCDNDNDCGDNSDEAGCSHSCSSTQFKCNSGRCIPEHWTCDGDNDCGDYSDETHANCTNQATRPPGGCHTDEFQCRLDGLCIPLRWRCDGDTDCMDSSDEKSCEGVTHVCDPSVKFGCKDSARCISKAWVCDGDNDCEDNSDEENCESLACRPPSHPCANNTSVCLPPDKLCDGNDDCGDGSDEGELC

[4] = target: T4, MMP-3 catalytic domain (UniProt P08254 100-272); assay: enzyme inhibition assay (fluorogenic substrate, Morrison equation); 2.3 nM MMP-3 catalytic domain incubated 1 h at 27 °C with 0.1 to 5.4 nM TIMP-1 or mutants in 50 mM Tris-HCl pH 7.5, 150 mM NaCl, 5 mM CaCl2; 3 µM MMP-3 fluorogenic substrate; details: both partners purified
T4 construct: MMP-3 catalytic domain; source: bought: Merck Biosciences
T4 sequence (P08254 100-272): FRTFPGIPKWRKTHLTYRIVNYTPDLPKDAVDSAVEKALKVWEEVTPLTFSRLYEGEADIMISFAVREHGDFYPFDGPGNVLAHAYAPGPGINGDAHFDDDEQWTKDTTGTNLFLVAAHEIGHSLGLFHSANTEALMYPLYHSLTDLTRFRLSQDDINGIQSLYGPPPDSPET

[5] = target: T5, MMP-2 (UniProt P08253 110-660); assay: enzyme inhibition assay (fluorogenic substrate, Morrison equation); 0.76 nM MMP-2 incubated 2 h at 27 °C with 0.17 to 13.5 nM TIMP-1 or mutants in 50 mM Tris-HCl pH 7.5, 150 mM NaCl, 5 mM CaCl2; 2.5 µM MMP-2/-7 fluorogenic substrate; details: both partners purified
T5 construct: MMP-2; source: bought: Merck Biosciences
T5 sequence (looked up): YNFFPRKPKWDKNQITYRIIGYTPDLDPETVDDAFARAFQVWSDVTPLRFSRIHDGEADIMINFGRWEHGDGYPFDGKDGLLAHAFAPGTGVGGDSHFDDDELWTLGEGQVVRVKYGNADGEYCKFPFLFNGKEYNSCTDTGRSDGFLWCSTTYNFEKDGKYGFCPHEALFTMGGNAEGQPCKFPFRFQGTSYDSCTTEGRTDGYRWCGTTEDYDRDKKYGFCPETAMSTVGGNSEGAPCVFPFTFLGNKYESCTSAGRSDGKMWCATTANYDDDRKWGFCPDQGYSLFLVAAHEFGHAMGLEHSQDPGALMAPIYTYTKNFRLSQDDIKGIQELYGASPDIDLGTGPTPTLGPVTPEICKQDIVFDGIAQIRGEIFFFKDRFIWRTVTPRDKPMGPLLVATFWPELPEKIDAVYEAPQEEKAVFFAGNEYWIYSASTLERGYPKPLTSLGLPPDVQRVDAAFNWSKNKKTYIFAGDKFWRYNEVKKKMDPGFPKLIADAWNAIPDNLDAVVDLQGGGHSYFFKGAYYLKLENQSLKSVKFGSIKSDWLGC

[6] = target: T6, MMP-9 (UniProt P14780 107-707); assay: enzyme inhibition assay (fluorogenic substrate, Morrison equation); 0.3 nM MMP-9 incubated 2 h at 27 °C with 0.7 to 11 nM TIMP-1 or mutants in 50 mM Tris-HCl pH 7.5, 150 mM NaCl, 5 mM CaCl2; 5 µM MMP-1/-9 fluorogenic substrate; details: both partners purified
T6 construct: MMP-9; source: bought: Merck Biosciences
T6 sequence (P14780 107-707): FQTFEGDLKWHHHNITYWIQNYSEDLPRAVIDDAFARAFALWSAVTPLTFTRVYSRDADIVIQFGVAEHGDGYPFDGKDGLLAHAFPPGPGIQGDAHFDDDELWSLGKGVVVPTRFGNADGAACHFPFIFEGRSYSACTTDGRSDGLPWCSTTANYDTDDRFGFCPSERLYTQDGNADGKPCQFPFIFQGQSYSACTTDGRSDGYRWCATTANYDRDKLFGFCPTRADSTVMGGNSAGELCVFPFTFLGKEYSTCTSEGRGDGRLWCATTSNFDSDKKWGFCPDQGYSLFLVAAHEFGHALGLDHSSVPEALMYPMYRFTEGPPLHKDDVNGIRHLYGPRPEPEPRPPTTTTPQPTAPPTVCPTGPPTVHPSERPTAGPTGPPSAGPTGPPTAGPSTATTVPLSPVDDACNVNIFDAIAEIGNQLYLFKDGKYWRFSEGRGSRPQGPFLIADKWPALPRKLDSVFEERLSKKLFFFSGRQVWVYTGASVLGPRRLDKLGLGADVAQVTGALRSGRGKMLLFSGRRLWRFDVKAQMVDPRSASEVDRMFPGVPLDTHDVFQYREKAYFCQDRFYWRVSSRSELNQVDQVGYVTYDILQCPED

fluorescence at the cell surface [1]: ~1500 A.U.
B1: eFluor-conjugated T1-WT (natural protein)
chain: not shown
modifications: biotinylated (ProtOn Biotin Labelling Kit), incubated with eFluor 450 Streptavidin
notes: TIMP-1 as in m1 (T1-WT), labelled. numbers count on: the mature protein; also called fluoT1-WT; fluo-T1-WT; source: CHO cells, stably transfected

fluorescence at the cell surface [1]: ~1500 A.U.
B2: eFluor-conjugated T1-F12A (natural protein)
chain: not shown
modifications: biotinylated (ProtOn Biotin Labelling Kit), incubated with eFluor 450 Streptavidin
notes: TIMP-1 F12A as in m2, labelled; also called fluoT1-F12A; fluo-T1-F12A; source: CHO cells, stably transfected

fluorescence at the cell surface [1]: ~1500 A.U.
B3: eFluor-conjugated T1-K47A (natural protein)
chain: not shown
modifications: biotinylated (ProtOn Biotin Labelling Kit), incubated with eFluor 450 Streptavidin
notes: TIMP-1 K47A as in m3, labelled; also called fluoT1-K47A; fluoT1K47A; source: CHO cells, stably transfected

Kd [2]: 37.4 nM | koff [2]: 0.0056 s⁻¹ | kon [2]: 148000 M⁻¹ s⁻¹ | Kd [3]: 10.8 nM | koff [3]: 0.0136 s⁻¹ | kon [3]: 1.28e+06 M⁻¹ s⁻¹ | Ki [4]: 1.18 nM | Ki [5]: 0.09 nM | Ki [6]: 4.25 nM
B4: FLAG-tagged TIMP-1 (tissue inhibitor of metalloproteinases-1), wild type (natural protein)
chain: not shown
modifications: glycosylated
notes: TIMP-1, cDNA from Origene (pCMV6-XL5) cloned into p3XFLAG-CMV14 from the start ATG; secreted by CHO cells. numbers count on: the mature protein; its concentration was measured with a Human TIMP-1 ELISA kit and the modelling used PDB 1UEA; also called T1-WT; wild-type TIMP-1; source: CHO cells, stably transfected; not shown: 3X-FLAG, C-terminal, kept

Kd [2]: 38.7 nM | koff [2]: 0.0055 s⁻¹ | kon [2]: 143000 M⁻¹ s⁻¹ | Kd [3]: 18.5 nM | koff [3]: 0.0192 s⁻¹ | kon [3]: 1.07e+06 M⁻¹ s⁻¹ | Ki [4]: 0.58 nM | Ki [5]: 0.06 nM | Ki [6]: 4.76 nM
B5: FLAG-tagged TIMP-1 F12A (natural protein)
chain: not shown
modifications: glycosylated
notes: TIMP-1, cDNA from Origene, site-directed mutant F12A; secreted by CHO cells; also called T1-F12A; source: CHO cells, stably transfected; not shown: 3X-FLAG, C-terminal, kept

Kd [2]: 26.5 nM | koff [2]: 0.0114 s⁻¹ | kon [2]: 427000 M⁻¹ s⁻¹ | Ki [4]: 0.55 nM | Ki [5]: 0.03 nM | Ki [6]: 4.4 nM
B6: FLAG-tagged TIMP-1 K47A (natural protein)
chain: not shown
modifications: glycosylated
notes: TIMP-1, cDNA from Origene, site-directed mutant K47A; secreted by CHO cells; also called T1-K47A; T1K47A; source: CHO cells, stably transfected; not shown: 3X-FLAG, C-terminal, kept
